The values below come from PMC6506529, “Structural Insights into Catalytic Versatility of the Flavin-dependent Hydroxylase (HpaB) from Escherichia coli” (Scientific Reports, 2019).

Conditions in all cases: apparent, 10 μM FAD, 1 mM NADH, 500 nM HpaC, 20 mM KPi pH 7.0, 30 °C
The subject of data set [1] is O=C(O)/C=C/c1ccc(O)cc1. Kind of data set: purified protein. The format is biochemical, Escherichia coli. From the text:
(§1) HPLC of product and substrate; Michaelis-Menten fit on EcHpaB

Data set [2] deals with O=C(O)/C=C/c1ccc(O)cc1. Description: HPLC of product and substrate; Michaelis-Menten fit. It is filed as biochemical, Escherichia coli.
Source text: as §1

A further data set has as its system O=c1ccc2ccc(O)cc2o1. Description: purified protein.
Data set [3] concerns O=C(O)/C=C/c1ccc(O)cc1. Description: purified protein. It is filed as biochemical, Escherichia coli. This is another data set of the same source.
Substrate in data set [4]: Oc1ccc(/C=C/c2cc(O)cc(O)c2)cc1
Kind of data set: purified protein.

Substrate in data set [5]: O=C1C[C@@H](c2ccc(O)cc2)Oc2cc(O)cc(O)c21
Kind of data set: purified protein.

Substrate in data set [6]: O=c1ccc2ccc(O)cc2o1
Kind of data set: purified protein. The source holds these as a separate data set.

Substrate in data set [7]: O=C(O)/C=C/c1ccc(O)cc1
Description: HPLC of product and substrate; Michaelis-Menten fit. It is filed as biochemical, Escherichia coli. This is another data set of the same source.

Usually Km stands for the concentration of substrate that gives half-maximal velocity. As usually defined, the kcat is the maximal rate divided by the concentration of active sites. A word on the kcat/Km: it is the turnover number divided by the Michaelis constant.

With “EcHpaB (Escherichia coli; A211D/E216M/F208A/G207M/G209M/G215A/N217V/S210V)”, in the data set on O=C(O)/C=C/c1ccc(O)cc1 [1], the Km stood at 210.8 ± 85.3 µM, the kcat was found to be 0.512 ± 0.0617 s⁻¹ and the kcat/Km came out at 2400 M⁻¹ s⁻¹.

Consider “EcHpaB (Escherichia coli; E216M/G215A/N217V)”, for which, in the data set with O=C(O)/C=C/c1ccc(O)cc1 [2], the Km was 235.6 ± 40.2 µM, the kcat was found to be 0.497 ± 0.0217 s⁻¹ and the kcat/Km was 2100 M⁻¹ s⁻¹.

As for “EcHpaB (Escherichia coli; A211D/E216S/F208S/M214S/N217D/Q212L/V213G)”, in the data set with O=c1ccc2ccc(O)cc2o1, the Km stood at 176.9 ± 35.9 µM, the kcat came to 0.348 s⁻¹ and the kcat/Km came to 2000 M⁻¹ s⁻¹. Further, in the data set on O=C(O)/C=C/c1ccc(O)cc1 [3], the Km came out at 132.1 ± 29.1 µM, the kcat was determined as 0.365 ± 0.0167 s⁻¹ and the kcat/Km amounted to 2800 M⁻¹ s⁻¹.

For the molecule “EcHpaB (Escherichia coli; A211D/E216M/F208A/G207M/G209M/G215A/M214G/N217V/Q212G/S210V/V213S)”, in the data set with O=C(O)/C=C/c1ccc(O)cc1 [2], the Km came out at 235.3 ± 52.5 µM, the kcat was found to be 0.375 ± 0.0217 s⁻¹ and the kcat/Km is 1560 M⁻¹ s⁻¹.

In the case of “EcHpaB (Escherichia coli; A211D/F208A/G207M/G209M/S210V)”, in the data set on O=C(O)/C=C/c1ccc(O)cc1 [3], the Km came to 387.9 ± 32.7 µM, the catalytic constant (kcat) came to 0.183 ± 0.00667 s⁻¹ and the catalytic efficiency (kcat/Km) was determined as 470 M⁻¹ s⁻¹.

B1: EcHpaB (Escherichia coli) (protein)
chain: MKPEDFRASTQRPFTGEEYLKSLQDGREIYIYGERVKDVTTHPAFRNAAASVAQLYDALHKPEMQDSLCWNTDTGSGGYTHKFFRVAKSADDLRHERDAIAEWSRLSYGWMGRTPDYKAAFGCALGGTPGFYGQFEQNARNWYTRIQETGLYFNHAIVNPPIDRHLPTDKVKDVYIKLEKETDAGIIVSGAKVVATNSALTHYNMIGFGSAQVMGENPDFALMFVAPMDADGVKLISRASYEMVAGATGSPYDYPLSSRFDENDAILVMDNVLIPWENVLLYRDFDRCRRWTMEGGFARMYPLQACVRLAVKLDFITALLKKSLECTGTLEFRGVQADLGEVVAWRNTFWALSDSMCSEATPWVNGAYLPDHAALQTYRVLAPMAYAKIKNIIERNVTSGLIYLPSSARDLNNPQIDQYLAKYVRGSNGMDHVQRIKILKLMWDAIGSEFGGRHELYEINYSGSQDEIRLQCLRQAQSSGNMDKMMAMVDRCLSEYDQNGWTVPHLHNNDDINMLDKLLK
notes: (α2)2 tetramer; expressed in E. coli BW25113 (F') from pZE12-luc, purified; assayed with separate purified HpaC reductase
With B1, the Km in the data set “purified protein [4]” is 174.3 ± 17.9 µM; in “purified protein [5]”, 349.8 ± 77.6 µM; in the data set “purified protein [6]”, 217.0 ± 60.6 µM; in data set [7] it was 137.6 ± 21.0 µM. Further, the kcat in “purified protein [4]” came to 0.437 s⁻¹; in “purified protein [5]” it was 0.15 s⁻¹; in the data set “purified protein [6]” it was 0.418 s⁻¹; in data set [7] it was 0.387 ± 0.0117 s⁻¹. Moreover, the kcat/Km worked out at 2500 M⁻¹ s⁻¹ in the data set “purified protein [4]”, 400 M⁻¹ s⁻¹ in “purified protein [5]”, 1900 M⁻¹ s⁻¹ in the data set “purified protein [6]” and 2800 M⁻¹ s⁻¹ in data set [7].
